Self-cleavage data for 41 variants are collected here from the RNAGym collection of RNA variant scans (doi:10.7554/elife.90254).

B1: OR4K15 (parent)
chain: GUUAACGGUCAUAGGCCAUGGAAACUAGGAGCACCAUUUCGCUGCCAGUGAAGAAAUGAACAAAGAAAAUCUGGGCCAGGCAGGCAUCAAAAGAAAUAGUCUUGCGCUCAACCAGAAAGUCUGUAAUCAUUUUAAGGGUA

This series covers variants of B1. As to the kind of experiment: self-cleavage, relative activity (ratio to wild type); higher = more cleavage; in vitro, sequencing; the parent is a self-cleaving ribozyme.
Regarding GUUAACGGUCAUAGGCCAUGGAAACUAGGAGCACCAUUUCGCUGCCAGUGAAGAAAUGUACAAAGAAAAUCUGGGCCAGGCAGGCAUCAAAAGAAAUAGUCUUGCGCUCAACCAGAAAGUCUGUAAUCAUUUUAAGGGUA [A59U], the self-cleavage is 1.14.

As for GUUAACGGUCAUAGGCCAUGGAAACUAGGAGCACCAUUUCGCUGCCAGUGAAGAAAUGUACAAAGAAAAUCUGGGCCAGGCAGGCAUCAAAAGAAAUAGUCUUGCGCUCAACCAGUAAGUCUGUAAUCAUUUUAAGGGUA [A59U A116U], the self-cleavage came out at 0.2. Then GUUAACGGUCAUAGGCCAUGGAAACUAGGAGCACCAUUUCGCUGCCAGUGAAGAAAUGGACAAAGAAAAUCUGGGCCAGGCAGGCAUCAAAAGAAAUAGUCUUGCGCUCAACCAGAAAGUCUGUAAUCAGUUUAAGGGUA [A59G U130G], with 1.62. As for GUUAACGGUCAUAGGCCAUGGAAACUAGGAGCACCAUUUCGCUGCCAGUGAAGAAAUGGACAAAGAAAAUCUGGGCCAGGCAGGCAUCAAAAGAAAUAGUCUUGCGCUCAACCAGAAAGUCUGUAAUCACUUUAAGGGUA [A59G U130C], the self-cleavage was 1.52.

As for GUUAACGGUCAUAGGCCAUGGAAACUAGGAGCACCAUUUCGCUGCCAGUGAAGAAAUGUACAAAGAAAAUCUGGGCCAGGCAGGCAUCAAAGGAAAUAGUCUUGCGCUCAACCAGAAAGUCUGUAAUCAUUUUAAGGGUA [A59U A92G], the self-cleavage was determined as 0.79. For the variant GUUAACGGUCAUAGGCCAUGGAAACUAGGAGCACCAUUUCGCUGCCAGUGAAGAAAUGUACAAAGAAAAUCUGGGCCUGGCAGGCAUCAAAAGAAAUAGUCUUGCGCUCAACCAGAAAGUCUGUAAUCAUUUUAAGGGUA [A59U A78U], the self-cleavage amounted to 0.31. For GUUAACGGUCAUAGGCCAUGGAAACUAGGAGCACCAUUUCGCUGCCAGUGAAGAAAUGUACAAAGAAAAUCUGGGCCGGGCAGGCAUCAAAAGAAAUAGUCUUGCGCUCAACCAGAAAGUCUGUAAUCAUUUUAAGGGUA [A59U A78G] the value was 0.27. For GUUAACGGUCAUAGGCCAUGGAAACUAGGAGCACCAUUUCGCUGCCAGUGAAGAAAUGUACAAAGAAAAUCUGGGCCAGGCAGGCAUCUAAAGAAAUAGUCUUGCGCUCAACCAGAAAGUCUGUAAUCAUUUUAAGGGUA [A59U A89U] the value was 2.6.

For the variant GUUAACGGUCAUAGGCCAUGGAAACUAGGAGCACCAUUUCGCUGCCAGUGAAGAAAUGUACAGAGAAAAUCUGGGCCAGGCAGGCAUCAAAAGAAAUAGUCUUGCGCUCAACCAGAAAGUCUGUAAUCAUUUUAAGGGUA [A59U A63G], the self-cleavage turned out to be 1.22. For GUUAACGGUCAUAGGCCAUGGAAACUAGGAGCACCAUUUCGCUGCCAGUGAAGAAAUGUACAAAGAAAAUCUGGGCCAAGCAGGCAUCAAAAGAAAUAGUCUUGCGCUCAACCAGAAAGUCUGUAAUCAUUUUAAGGGUA [A59U G79A], the self-cleavage turned out to be 0.14. For GUUAACGGUCAUAGGCCAUGGAAACUAGGAGCACCAUUUCGCUGCCAGUGAAGAAAUGUACAAAGAAAAUCUGGGCCAGGCAGGCAUCAAAAGAAAUAGUCUUGCGCUCAACCCGAAAGUCUGUAAUCAUUUUAAGGGUA [A59U A114C] the value was 0.03. On to GUUAACGGUCAUAGGCCAUGGAAACUAGGAGCACCAUUUCGCUGCCAGUGAAGAAAUGUACAAAGAAAAUCUGGGCCAGGCAGGCAUCAAAAGAAAUAGUCUUGCGCUUAACCAGAAAGUCUGUAAUCAUUUUAAGGGUA [A59U C109U], for which the self-cleavage was determined as 0.43. Then GUUAACGGUCAUAGGCCAUGGAAACUAGGAGCACCAUUUCGCUGCCAGUGAAGAAAUGGACAAAGAAAAUCUGGGCCAGGCAGGCAUCAAAAGAAAUAGUCUCGCGCUCAACCAGAAAGUCUGUAAUCAUUUUAAGGGUA [A59G U103C], with 0.67; and GUUAACGGUCAUAGGCCAUGGAAACUAGGAGCACCAUUUCGCUGCCAGUGAAGAAAUGUACAAAGAGAAUCUGGGCCAGGCAGGCAUCAAAAGAAAUAGUCUUGCGCUCAACCAGAAAGUCUGUAAUCAUUUUAAGGGUA [A59U A67G], with 1.25; and GUUAACGGUCAUAGGCCAUGGAAACUAGGAGCACCAUUUCGCUGCCAGUGAAGAAAUGGACAAAGAAAAUCUGGGCCAGGCAGGCAUCAAAAGAAAUAGUCUUGCGCUCAACCAGAAAGUCUGUAAUCAUUGUAAGGGUA [A59G U132G], with 1.41. For GUUAACGGUCAUAGGCCAUGGAAACUAGGAGCACCAUUUCGCUGCCAGUGAAGAAAUGGACAAAGAAAAUCUGGGCCAGGCAGGCAUCAAAAGAAAUAGUCUUGCGCUCAACCAGAAAGUCUGUAAUCAUUCUAAGGGUA [A59G U132C] the value was 0.46; for GUUAACGGUCAUAGGCCAUGGAAACUAGGAGCACCAUUUCGCUGCCAGUGAAGAAAUGUACAAAGAAGAUCUGGGCCAGGCAGGCAUCAAAAGAAAUAGUCUUGCGCUCAACCAGAAAGUCUGUAAUCAUUUUAAGGGUA [A59U A68G], 1.43. With GUUAACGGUCAUAGGCCAUGGAAACUAGGAGCACCAUUUCGCUGCCAGUGAAGAAAUGUACAAAGAACAUCUGGGCCAGGCAGGCAUCAAAAGAAAUAGUCUUGCGCUCAACCAGAAAGUCUGUAAUCAUUUUAAGGGUA [A59U A68C], the self-cleavage is 1.35. For GUUAACGGUCAUAGGCCAUGGAAACUAGGAGCACCAUUUCGCUGCCAGUGAAGAAAUGUACAAAGAAAAUCUGGGCCAGGCAGGCAUCAAGAGAAAUAGUCUUGCGCUCAACCAGAAAGUCUGUAAUCAUUUUAAGGGUA [A59U A91G] the value was 0.79; for GUUAACGGUCAUAGGCCAUGGAAACUAGGAGCACCAUUUCGCUGCCAGUGAAGAAAUGUACAAAGAAAAUCUGGGCCAGGCAGGCAUCAAAAGAAAUAGUCUUGCGCUCAACCAGACAGUCUGUAAUCAUUUUAAGGGUA [A59U A117C], 0.63. For GUUAACGGUCAUAGGCCAUGGAAACUAGGAGCACCAUUUCGCUGCCAGUGAAGAAAUGUACAAAGAAAAUCUGGGCCAGGCAGGCUUCAAAAGAAAUAGUCUUGCGCUCAACCAGAAAGUCUGUAAUCAUUUUAAGGGUA [A59U A86U] the value was 1.92; for GUUAACGGUCAUAGGCCAUGGAAACUAGGAGCACCAUUUCGCUGCCAGUGAAGAAAUGUACAAAGAAAAUCUGGGCCAGGCAGGCGUCAAAAGAAAUAGUCUUGCGCUCAACCAGAAAGUCUGUAAUCAUUUUAAGGGUA [A59U A86G], 0.7; for GUUAACGGUCAUAGGCCAUGGAAACUAGGAGCACCAUUUCGCUGCCAGUGAAGAAAUGGACAAAGAAAAUCUGGGCCAGGCAGGCAUCAAAAGAAAUAGCCUUGCGCUCAACCAGAAAGUCUGUAAUCAUUUUAAGGGUA [A59G U100C], 2.06. Then GUUAACGGUCAUAGGCCAUGGAAACUAGGAGCACCAUUUCGCUGCCAGUGAAGAAAUGGACAAAGAAAAUCUGGGCCAGGCAGGCAUCAAAAGAAAUAGACUUGCGCUCAACCAGAAAGUCUGUAAUCAUUUUAAGGGUA [A59G U100A], with 0.63; and GUUAACGGUCAUAGGCCAUGGAAACUAGGAGCACCAUUUCGCUGCCAGUGAAGAAAUGUACAAAGAAAAUCUGGGCCAGGCAGGCAUCAAAAGAAUUAGUCUUGCGCUCAACCAGAAAGUCUGUAAUCAUUUUAAGGGUA [A59U A96U], with 0.97. For the variant GUUAACGGUCAUAGGCCAUGGAAACUAGGAGCACCAUUUCGCUGCCAGUGAAGAAAUGUACAAAGAAAAUCUGGGCCAGGCAGGCAUCAAAAGAAAUAGUCUUGCGCUCAACCAGAAAGUCUGUAAUCAUUUUGAGGGUA [A59U A134G], the self-cleavage is 1.02. For GUUAACGGUCAUAGGCCAUGGAAACUAGGAGCACCAUUUCGCUGCCAGUGAAGAAAUGUACAAAGAAAAUCUGGGCCAGGCAGGCAUCAAAAGAAAUAGACUUGCGCUCAACCAGAAAGUCUGUAAUCAUUUUAAGGGUA [A59U U100A] the value was 0.74; for GUUAACGGUCAUAGGCCAUGGAAACUAGGAGCACCAUUUCGCUGCCAGUGAAGAAAUGUACAAAGAAAAUCUGGGCCAGGCAGGCAUCAAAAGAAAUAGCCUUGCGCUCAACCAGAAAGUCUGUAAUCAUUUUAAGGGUA [A59U U100C], 2.73.

GUUAACGGUCAUAGGCCAUGGAAACUAGGAGCACCAUUUCGCUGCCAGUGAAGAAAUGUACAAAGAAAAUCUGGGCCAGGCAGGCAUCAAAAGAGAUAGUCUUGCGCUCAACCAGAAAGUCUGUAAUCAUUUUAAGGGUA [A59U A95G]: the self-cleavage was 1.85.

Regarding GUUAACGGUCAUAGGCCAUGGAAACUAGGAGCACCAUUUCGCUGCCAGUGAAGAAAUGGACAAAGAAAAUCUGGGCCAGGCAGGCAUCAAAAGAAAUAGUCUUGCGCUCAACCAGAAAGUCAGUAAUCAUUUUAAGGGUA [A59G U122A], the self-cleavage is 1.38. Then GUUAACGGUCAUAGGCCAUGGAAACUAGGAGCACCAUUUCGCUGCCAGUGAAGAAAUGUACAAAGAAAAUCUGGGCCAGGCAGGCAUCAAAAGAAAUAGUCUUGCGCUCGACCAGAAAGUCUGUAAUCAUUUUAAGGGUA [A59U A110G], with 0.08. Then GUUAACGGUCAUAGGCCAUGGAAACUAGGAGCACCAUUUCGCUGCCAGUGAAGAAAUGUACAAAGAAAAUCUGGGCCAGGCAGGCAUCACAAGAAAUAGUCUUGCGCUCAACCAGAAAGUCUGUAAUCAUUUUAAGGGUA [A59U A90C], with 1.63. Then GUUAACGGUCAUAGGCCAUGGAAACUAGGAGCACCAUUUCGCUGCCAGUGAAGAAAUGGACAAAGAAAAUCUGGGCCAGGCAGGCAUCAAAAGAAAUAGUCCUGCGCUCAACCAGAAAGUCUGUAAUCAUUUUAAGGGUA [A59G U102C], with 1.5; and GUUAACGGUCAUAGGCCAUGGAAACUAGGAGCACCAUUUCGCUGCCAGUGAAGAAAUGGACAAAGAAAAUCUGGGCCAGGCAGGCAUCAAAAGAAAUAGUCAUGCGCUCAACCAGAAAGUCUGUAAUCAUUUUAAGGGUA [A59G U102A], with 0.81; and GUUAACGGUCAUAGGCCAUGGAAACUAGGAGCACCAUUUCGCUGCCAGUGAAGAAAUGGACAAAGAAAAUCUGGGCCAGGCAGGCAGCAAAAGAAAUAGUCUUGCGCUCAACCAGAAAGUCUGUAAUCAUUUUAAGGGUA [A59G U87G], with 0.3. For the variant GUUAACGGUCAUAGGCCAUGGAAACUAGGAGCACCAUUUCGCUGCCAGUGAAGAAAUGGACAAAGAAAAUCUGGGCCAGGCAGGCAUCAAAAGAAAUAGUCUUGCGCUCAACCAGAAAGCCUGUAAUCAUUUUAAGGGUA [A59G U120C], the self-cleavage was 0.97. For GUUAACGGUCAUAGGCCAUGGAAACUAGGAGCACCAUUUCGCUGCCAGUGAAGAAAUGUACAAAGAAAAUCUGGGCCAGGCAGGCAUCAAAAGGAAUAGUCUUGCGCUCAACCAGAAAGUCUGUAAUCAUUUUAAGGGUA [A59U A94G] the value was 1.02; for GUUAACGGUCAUAGGCCAUGGAAACUAGGAGCACCAUUUCGCUGCCAGUGAAGAAAUGGACAAAGAAAAUCUGGGCCAGGCAGGCAUCAAAAGAAAUAGUCUUGCGCCCAACCAGAAAGUCUGUAAUCAUUUUAAGGGUA [A59G U108C], 0.02. Take GUUAACGGUCAUAGGCCAUGGAAACUAGGAGCACCAUUUCGCUGCCAGUGAAGAAAUGGACAAAGAAAAUCUGGGCCAGGCAGGCAUCAAAAGAAAUAGUCUUGCGCACAACCAGAAAGUCUGUAAUCAUUUUAAGGGUA [A59G U108A]: the self-cleavage came out at 0.01. Regarding GUUAACGGUCAUAGGCCAUGGAAACUAGGAGCACCAUUUCGCUGCCAGUGAAGAAAUGUACAAAGAAAAUCUGGGCCAGGCAGGCAUCAAAAGAAAUAGUCUUGCGCUCAACCAGAAAGUCUGUAAUCAUUUUAAGUGUA [A59U G137U], the self-cleavage came out at 2.15.

Take GUUAACGGUCAUAGGCCAUGGAAACUAGGAGCACCAUUUCGCUGCCAGUGAAGAAAUGUACAAAGAAAAUCUGGGCCAGGCAGGCAUCAAAAGAAAUAGUCUUGCGCUCAACCAGAAAGUCUGUAAUCAUUUUAAGAGUA [A59U G137A]: the self-cleavage came to 2.05.
